Measured values as given in the nanobody polyreactivity screen of Harvey et al. (2022).

assay: yeast display, Sf9 membrane polyspecificity reagent, FACS + sequencing; frameworks hold sequencing errors
How it was run: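 Polyreactivity labels are assigned by the sorting gate from which each nanobody was recovered. The gates were low and high (top ~1%), set on anti-HA fluorescence for expression and streptavidin fluorescence for reagent binding. Before sorting, galactose-induced (36–48 hours) yeast display cells were stained for 1 hour at 4 °C with 10% biotinylated, detergent-solubilized Sf9 membrane reagent.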

Sequence	polyreactivity (PSR sort gate)
QDQLVESVGGLVQAGASLRLSCAATGRTFTTYAIGLYRPAPGKERELVAAITSGTSTNYADSVKGRFTISRDTAKNTVYVQMNSLKPEDTAVYYCAAPHGRGYEYWGQGTQVTVSS	high polyreactivity
QDQLVESVGGLVQAGGSHRLSCAASGFTLKAYVMGWYRQAPGKERELVAAIRITGGRTYYADSVKGRFTISRDNAKNTVYLQMNSLKPQDTAVYYCNAVKGEPDDYVPFELDYWGQGTQVTVSS	high polyreactivity
QDQLVESVGGLVQAGGSLRLSCAASGGTFGPNAMGWYRQAPGKERELVAAISASGGITYYADSVKGRFTISRDNAKNTVYLQMNSLKPEDTAVYYCAAAITWIYSQAAFKIVQYDYWGQGTQVTVSS	low polyreactivity
QDQLVESVGGLVQAGGSLRLSCAASGSIFVRYAMGWYRQAPGKERELVAAISSDGNTYYADSVKGRFTISRDNAKNTVYLQMNSLKPEDTAVYYCAAKTRSRYYWGQGTQVTVSS	high polyreactivity
QDQPVESGGGLVQAGGSLRLSCDDSGFTFVYYAMGWYRQAPGQERELVAAISTGGSTYYADSVKWRFTISRDNAKNTVYLQMNSLKPEDTAVYYCNAVYTYRWRFNYWGQGTQVTVSS	high polyreactivity
QDQRVDSGRGLVQAGGSLRLSCAASGSIFDFYARGWNRPAPGKERELVATISSAGSTYYAESVKGRFTISRDNAKNTVYLQMNSLKPEDTALYYCARGYIRSYWWYHSDRGDFWGQGTQVTVSS	low polyreactivity
QEHLQESGGGLVQAGGDLRLSSPSSGNIFRDYISGCYRQAPGKEREFAAGIDRGANTNYADSVKGRFTISRDNAKNTVYLQMISLKPVDTAVYYCGVHTAIVPEFIYWGQGTQVTVSS	low polyreactivity
QEQLEESGGGLVQAGGSLRLSCAASGRIFAAYAKGWYRPAPGKEREVVAGITRTGGSTYYADSVKGRFTISRDNAKNTVYLQMNSLKPEDTAVYYCAARWIWRGYDYWGQGTKVTVSS	high polyreactivity
QEQLQEIGGRLEQAGGSLRLSCAASGYITYIGTMGWYRHAPGKEREFVATIVVGSTTNYADSVKGRFTISRDNAKNTVYLQPESGRYRGVLLRGWLLAVGKFTYWGQGTQETVSS	low polyreactivity
QEQLQETGGGLVRAGGSLRLICAASRSNSVEAGMGRSRQAPGEERELVATINDGSITNYAVSVKGRFTTSRDNAKYTVYLLMNSLKPEDTAVYYCAALTRNYQSHQFWGQGTQVTVSR	high polyreactivity
QEQLVESGGGIVKAGGSLRLSCAASGSIFSYYAMGRYRKSPGKEMELVAGITGGGSTDYADSLKGRFTISRDNAKNTVYLQMNSLIPEDPAVYYCAKRYVPWRPYDYWGQGTQVTVSS	low polyreactivity
QEQRVESGGGFVQAGGSLRLSCAASGFICVDYAMRWYRHARGNEREWVAAITYDGGSTYFADSVKARFTISRDNAKNTVNSQMNSLNPEDTALYYWAADYGYSQYILRQVRLEELDYSGQGTQVTVSS	low polyreactivity
QFHLVESGGGLVQAGGSLRLSCAASGITFGYYAMGWYRQAPGKERELVAAISGSASRTYYADTVKGRFTISRDNAKNTVYLQMNSLKQEDTAVYYCNARGGGTASCYYYWGPGTQVTVSS	high polyreactivity
QFHLVESGGGLVQAGGSLRLSCAASGRIFYPYAMGWYRQAPGKEREFVAAITRRTASTYYADSVKGRFTITRDNAKNTVYLQMNSLKPEDTAVYYCAADSYLKRPYYAGYYYWGQGTQVTVSS	high polyreactivity
QFHLVESGGGLVQAGGSLRLSCAASGYTFGKYAKGWYRHAPGKDRELVAGISSRGGSTYYADSVKWRFTISRDNAKNTVYLQMISLKPEYTAVYYCAAVAYTGGPRKLSFNYWGQGTQVTLSS	high polyreactivity
QFQLEESGGGLVQAGGSLRLSCDASGSTFSYALGWYRQAPGKERELVAAITIGGRTSYADSVKGRFTISRDNAKNTVYLQMNSLKPEDTAVYYCAAEGYYPVYYYVYYGYDYWGQGTQVTVSS	low polyreactivity
QFQLLESWGGLVQAGGSLLFSCAASGSTFGYYAMGWYRKAPGKERELVAAISKSGGTTSYADSVKGRFTISRDNAKNTVYLQMISLKPEDTAVYYCSARSFRRGGLRGYDSWGQGTQVTVSS	high polyreactivity
QFQLVDSGGGLVQAGGSLRLSCAASGRNYRLYAMGWSRQAPRKERELVAAITRGGRTNYAYSVKGRFTISRDNAMNTVYLQMNSLKPEDTAVYYCAARFVERDTDYYYWGQGTQVTVSS	low polyreactivity
QFQLVDSGGGLVQAGGSLRLSCAASGRTFFFYAMGWYRQAPGKERELVASITWSGGTRTYYADSVKGRFTISRDNAKNTVYLQMNSLKREDTAVYYCADTYSSYWFNRYGGKYYYWGQGTQVTVSS	high polyreactivity
QFQLVDSGGGLVQPGGSLRLRCAASGLTFQQYAMGWYRQAPGKERELVAAITSDGASTNYADSVKGRFTISRDNAKNTVYLQMNSLKPEDTAVYYCAARRRSRQYRYDYWGQGTQVTVSS	high polyreactivity
QFQLVESAGGLLQAGGSLRIICAASGSTFGYNAMGWYRQAPGKERELVAAITGGGTTNYADSVKGRFTISRDNAKNTVYLQMNSLKPEDTAVYYCAASARRFFFPIYGLYYWGQVTQVTVSS	high polyreactivity
QFQLVESGGCLVQAGGSLRLSCAASGSIFLENTMGWYRQARGKEWEVVAPITSSGDSTYADSVKGRFTIARDNAKNTVYLHMNSLKPEDTAVYYCAAYAGSVRPGDLYGYDYWGQGTQVTVSS	low polyreactivity

Sequence	polyreactivity (PSR sort gate)
QFQLVESGGGIVQAGGRLRLSCAASGSTFFGYAMGWFRQAPGKVRELVAAISSGGSTYYADSVKGRFTISRDNAKNTVYVQMNSLKPEDTAVYYCAAYSYPKKYGYWGQGTQVTVSL	high polyreactivity
QFQLVESGGGLDQAGGSLRLSCAASGFIFSWYAMGWYRQAPGKERELVAAINWSGGSTYYADSVKGRFTISRDNAKNTVYLQMNSLKPEDTAVYYCAAVRQSQFEYWGQGTQVTVSS	high polyreactivity
QFQLVESGGGLDQAGGSLRLSCAASGRIFYRNCMGWYSQAPWKDRELVASIRRGGSTNYADSVKGRFTISRDNAKYTVYLQMNSVKPEDTAVYYCAARRFYPYISSGPYYYWGQGTQVTVSS	high polyreactivity
QFQLVESGGGLFQAGGSLRLSCAASGSTFKRYAMGSYRQAPGKERELVAAISASGGSTSYADSVKGRFTISRDKAKNTVYLQMISLKPEDTAVYYCARDRFRSRFDYWGQGTQVTVSS	high polyreactivity
QFQLVESGGGLVEAGGSLRLSCAASGFTFSWYVMGWYRPAPGKERELVATITNRGGSTYYADSVKGRFTISRDNAKNTVYIQMKSQKPEDTAVYYCAARKKGSRVGYDYWGEGTQVTVSS	high polyreactivity
QFQLVESGGGLVQAGASLRLSCAASGSISKSYAMGWYRQAPGKERELVAAISWRGGSTYADSVKGRFTISRDNAKNTVYLQMNCLKPEDTAVYYCAATNYGTFWGGQSERYDYWGQGTQVTVSS	low polyreactivity
QFQLVESGGGLVQAGASLRLSCAASVSTFRPYAMGWYRQAPGKERELVAAISSGDSTYYADSVKGRFTISRDNGKNTVYLQMNSLIPDDTAVYYCAKRNYWHRGGGYWGLGTQVTVSS	high polyreactivity
QFQLVESGGGLVQAGCSLRLSCAASGRTVGSNDMGWYRQAPRKEMDLFAAIPTTTASTNYADSVKGRFTISRDNAKNTVYFQMNSLKPEDNAVYYCNKQYLWYYWDGTDAEDYWGQGTQVTVSS	low polyreactivity
QFQLVESGGGLVQAGGILRLSCAASGLIFQAYTMGWYRQAPGKEREFVAAISKSGGSTYYADSVKGRFTISRDNAKNTVYLQMNSLKPEDTAVYYCAAVDWRRPGYDYWGQGTQVTVSS	high polyreactivity
QFQLVESGGGLVQAGGILRLSCAASGRIFKYYAMGWYRQEPGKERELVAAISRGGSTYYADSVKGRFTISRDNAKNTVYLQMNSLKPEDSAVYYCNAYRHGYVAYRRYDYWGQGTQVTVSS	high polyreactivity
QFQLVESGGGLVQAGGRLRLSCAASGSTLRRYAMGWYRQAPGKERELVAAITYRSGSTYYADSVKGRFTISRDNAKNTVYLEMNSLKPVDTAVYYCAKVGYVSKYWFAGDYWGQGTQVTVSS	high polyreactivity
QFQLVESGGGLVQAGGSLRLSCAASGFIFAVNAMGWYRQAPGKERELVAAISSSGTTNYADSVKGRFTISRDNAKNTVYLQMNSLKPEDTAVYYCNKRWRDKYPQYDYWGQGTQVTVSS	low polyreactivity
QFQLVESGGGLVQAGGSLRLSCAASGFIFKPYTMGWYRQAPGKERELVATITFSGGSTYYADSVKGRFTNSRDNAKNTVYLQMNSLKPEDTAVYYCAAPRFYRGYAIYDYWGQGTQVTVSS	low polyreactivity
QFQLVESGGGLVQAGGSLRLSCAASGFNFQYNAIGWYRQAPGKERELVAAITWTGTSTYADSVKGRFTISRDYAKNTVYLQMNSLKPEDTSVYYCAARYYAPRWFRYDYWGQGTQVTVSS	low polyreactivity
QFQLVESGGGLVQAGGSLRLSCAASGFTFPGYALGWSTQAPGKERELVAAINSSGGRTYYADSVKWRFTISRDNAKYTVYLQMNSLKPEDTEVYYCGATRWYIRARYNYWGHGTQVTVSS	high polyreactivity
QFQLVESGGGLVQAGGSLRLSCAASGFTFYPYAMGWSRQAPGKERELVAAITRSGTSTFYADSVKGRFTISRDNAKNTVYLQMNSLKPEDTAVYYCAKGYFFVGTDWESYYWGQGTQVTVSS	low polyreactivity
QFQLVESGGGLVQAGGSLRLSCAASGFTYYFYAMGWYRPAPGKERELVAAISRGGSTTYADSVKGRFTISRDNAKNTVYLQMYSLKPEDTAVYYCGADDYYDPHYEYDFWGQGTQVTVSS	low polyreactivity
QFQLVESGGGLVQAGGSLRLSCAASGIIFGRYTMGWYRDAPGKERELVAAITSSGITYYADSVKGRFTISRDNAKNTVYLQMNSLKPEDTAVYYCAADVGYWGRSRGYPSDDYDYWGQGTQVTVSS	low polyreactivity
QFQLVESGGGLVQAGGSLRLSCAASGITFGTNAMGWYRQATGKERELVARISSSDASTYYADSVKGRFTISRDNGKNTVYLQMNSLKPEDTAVYYCAADIYVTGYFRYDYWGQGTQVTVSS	low polyreactivity
QFQLVESGGGLVQAGGSLRLSCAASGITFTFNARGWYRQAPGKERELVAAITWSGGSPFYADSVKGRFTISRDNAKNTVYLQLNSLNPEDTAVYYCARDTELYVRWLDYWGQGTQVTVSS	low polyreactivity
QFQLVESGGGLVQAGGSLRLSCAASGNIFGYYALGWYRQAPGKEREFVAAISGGDSTNYADSVKGRFTNSRDNAKNTVYLQMNSLQPEDTAVYYCARDYWSGASGGYPYDYWGQGTQVTVSS	low polyreactivity
